Measurements: the supplement of paper PMC12764529
± gives the half width of the 95% confidence interval.

What was measured:
[1] = folding stability dG unfold from trypsin proteolysis; higher = more stable
Outline: (§1)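 Digests were run with trypsin and chymotrypsin at 11 concentrations in threefold dilutions, plus a no-protease condition, on designed mini-proteins in a PA-tagged cDNA display construct. The mini-proteins were under 80 residues, had no cysteine, and were kept only when AlphaFold2 dimer inter-PAE was above 15. After sequencing, Bayesian fitting of the counts gave K50, from which unfolding free energy was derived against a sequence-predicted unfolded-state K50 and a shared folded-state K50, per protease or combined.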

[2] = folding stability dG unfold from chymotrypsin proteolysis; higher = more stable
Outline: as §1

[3] = folding stability dG unfold (combined trypsin and chymotrypsin); higher = more stable
Outline: as §1

Sequence	folding stability dG unfold [1] [kcal/mol]	folding stability dG unfold [2] [kcal/mol]	folding stability dG unfold [3] [kcal/mol]
SAGGSGMKLEKEIEVEVDPSGVGAEAVKEAVRAELEKEGYKVKVEIEVSEEEEKLYVKLHVEIYELSAGGSA [r2_172_JUSTAS]	0.999 ± 0.064	2.01 ± 0.14	1.57 ± 0.19
SAGGSIEELAREKALEEHKKTGEKNYPFTFEFEIVSSYEFAPDGTPVASSEFPFKITLKFKLPPKKKSAGGS [r16_156_JUSTAS]	1.44 ± 0.024	2.88 ± 0.069	2.43 ± 0.12
SAGGSPIIRVKVTYYPPDGSVTVYLPADSVDELIDALNSVPDIPVTPTDGDTIIASTPDAIVEITVESSAGG [r13_143_TrMRF]	0.471 ± 0.031	0.849 ± 0.032	0.717 ± 0.097
SAGGSAGGSAGGEAFEVERVELVLDPETGTPYLLVYFRDGRVLVYDLPRGTWRVVPAEELSAGGSAGGSAGG [r11_922_TrMRF]	2.21 ± 0.049	3.06 ± 0.076	2.81 ± 0.065
SAGGSAGGSAGGMILVQDKKTKKWYEIKPGESLENLEFPEGVKEVRIYVFNEDGELVELDSAGGSAGGSAGG [r7_763_TrROS_Hall]	1.39 ± 0.043	2.45 ± 0.027	2.28 ± 0.12
SAGGSAGGSAVAEEFKKKFPDKTVTVEAFTFERTVTHPDGGSSTERVTVLNVTVSSSDDPGSAGGSAGGSAG [r3_358_TrMRF]	1.35 ± 0.071	2.15 ± 0.1	1.96 ± 0.11
SNLMIHFENPDNGVRVMIQINPEHGRIKLSVMYPNGKPVAEQTIEVDPNKIRLRFKVGGRKFEIEIEIPESA [r9_385_TrROS]	4.32 ± 0.19	5.6 ± 0.29	5.62 ± 0.54
SAIEIYIYPDNWMISIEPPNPNGPEKEIMIPIDKDDLKNPEFLKEIADEIMENGIPVEADIMPPGQPIPSAG [r14_60_TrROS]	0.857 ± 0.27	-0.0516 ± 0.13	0.307 ± 0.38
SAGGSAGGSAGGKKITIVMSAEEAEALAKALEDAGIDIDNLKIEVVKVEFPPALPAEDKSAGGSAGGSAGGS [r10_602_TrROS_Hall]	1.2 ± 0.029	1.8 ± 0.051	1.57 ± 0.074
SAGGSAGGSAGGSTKTYNAEIDNPNGPKITIPIEYRNEDGESDFEEKAKKFAEEYAKKYSAGGSAGGSAGGS [r4_168_TrMRF]	-0.886 ± 0.46	0.906 ± 0.16	0.547 ± 0.14
SAGGSAGGSASMGVVDEFVVYVPGEKGEEVEVKVYKDPNSDRYIVEIKGKKIPVTDEKKALLSAGGSAGGSA [r18_67_JUSTAS]	0.41 ± 0.068	0.0997 ± 0.33	0.447 ± 0.26
SAGGELKLLFNFPSKEEAEEFAEALKKAYPNFEVEVEYDPETGLFYLTLKPKEIPPLSPEELEKLLESAGGS [r16_674_TrMRF]	2.96 ± 0.085	4.87 ± 0.056	4.7 ± 0.071
SAGGSAGGSPGPGTEVEVRYRHPATGRWYPGVAVFTPDGSIRVYFPALGTTVTVPPHTVEPVPSAGGSAGGS [r12_726_TrMRF]	1.98 ± 0.056	1.93 ± 0.031	1.93 ± 0.053
SAGGSAGGSAGGPPGAVERGYLVVRFRVYRPEPAEPVGELTVYVRVPPPEPEEDGSFRFHSAGGSAGGSAGG [r7_959_TrMRF]	1.98 ± 0.025	2.39 ± 0.068	2.24 ± 0.086
SAGGSAGGSAGGSIEIIVRTPEMAKQMAKRIQKILADQGNPPPLKIEIHVIPPDDLPPWSAGGSAGGSAGGS [r4_472_TrROS]	-0.0989 ± 0.26	0.571 ± 0.092	0.388 ± 0.15
SAGGSAGGSAGGSITITTEPLPSGGRRVTVTLPGSSVVLELEFSPDETEEEVRAAVEAASAGGSAGGSAGGS [r10_825_JUSTAS]	1.47 ± 0.035	2.12 ± 0.06	1.93 ± 0.09
SAGGSAGGSAGGSAMTLLSEEELPDGSRRVLMRFPDGTRMELTVHPDGSVEERVTPPAASAGGSAGGSAGGS [r4_483_JUSTAS]	2.28 ± 0.065	2.904 ± 0.021	2.72 ± 0.086
SAGGMEIKIENIEINPDKKTIQYNFEIYHDGQPFKMDISIEVDPKNGLYKITVTYPDFPGVKHTLYIPSAGG [r13_615_TrROS]	3.38 ± 0.23	5.27 ± 0.15	5.35 ± 0.54
SAMDIGPEERAELLLRTLANIAKEEIEKGDLEKAKIFVINGIAEENPPLAERILKEAKELGLPVIILPESAG [r14_908_TrMRF]	0.659 ± 0.1	1.13 ± 0.076	0.981 ± 0.059
SAGGSAGMPSVPVERTVTVTVVDAEGNLVGTVTLTLTFPGGVSEEEREAAIAAAIEAAVPPAGVVSSAGGSA [r15_310_JUSTAS]	2.56 ± 0.077	2.26 ± 0.059	2.41 ± 0.076
SAGGSAGGKKIRIRIPLPDGTWVEVEVYFSEDGIYSFYIPPTGKLVLIDVGENGIKITIIDLPPSAGGSAGG [r6_58_TrMRF]	4.1 ± 0.32	4.47 ± 0.27	4.38 ± 0.43

Sequence	folding stability dG unfold [1] [kcal/mol]	folding stability dG unfold [2] [kcal/mol]	folding stability dG unfold [3] [kcal/mol]
SAGGGSMIKKTLEEEPVGESTVSKSTVTLPDGTPVSVTSTTTKVGNTWTTTTTTNYGSSTTTTTTTTSAGGS [r16_476_JUSTAS]	-0.638 ± 0.21	0.419 ± 0.11	0.156 ± 0.15
SAMYKIRLKNGEEIELEGMSIEELEKLFPDVELEIEKVEKVPVVKAPSKEEAEELAKKLPPGAKIIVEDSAG [r14_445_TrROS_Hall]	0.287 ± 0.14	0.233 ± 0.36	0.324 ± 0.3
SAMKIIIKLPKNVKPIKAEELEKIPGIKVVKIEIYKGEDGVYYLLIEIEESIPPEKLKELEEKIREIAGSAG [r14_421_TrMRF]	4.44 ± 0.28	5.41 ± 0.15	5.81 ± 0.41
SAGGSAGGSAGKKVKISLILIAKSPEEAEEAAKAIKEAFGSEDVEVDIIEIPAKLGPGKLSAGGSAGGSAGG [r17_285_TrMRF]	0.319 ± 0.072	0.252 ± 0.12	0.378 ± 0.26
SAGGMKTVEIEIPVPPGMSIEELVKKLLEELKKKKDIKEVEIEITLKDGSKIKIRVNKNGKIVKVEKLSAGG [r13_690_TrROS_Hall]	1.73 ± 0.056	2.46 ± 0.11	2.25 ± 0.15
SAGGSAGGSAGKFKLKIKEVHWRENPNGYEQVKVEIKIPGEEKKIWFPPGMSIDQILDQLSAGGSAGGSAGG [r11_1056_TrROS]	0.415 ± 0.081	1.13 ± 0.18	0.732 ± 0.12
SGPGEEEVAKRAAAEAAPTPDVREVTEEVEIVVPGTGEKVVVPVTALRLPDGTIVPLPEEEIRAIAEKLLSA [r9_1056_JUSTAS]	0.341 ± 0.098	1.07 ± 0.058	0.771 ± 0.13
SAGGSAGGSAPDIKILEPLEVDPDNGMITLKIELPGDGKVHEAIFFNPDGEPMMKFTIEIPKSAGGSAGGSA [r18_296_TrROS]	0.219 ± 0.094	0.358 ± 0.31	0.299 ± 0.3
SAGGLKPGDWVIIMTIEFPFPFPDDDGKPQEWRIKITIWVPVEYDPPDGKLEIDNIFINIEIVPPDQISAGG [r13_312_TrROS]	3.52 ± 0.22	4.55 ± 0.1	4.44 ± 0.18
SAPIVIPAKAGSPENVLKAIKEAKELASKGKKVYLPILTKDGPIFFEVDPKTKTIKIYNPKTGEKKDLSSAG [r14_423_TrMRF]	1.45 ± 0.032	1.04 ± 0.07	1.25 ± 0.16
SAGGSAGGSAGEIEVTVTFTGDDGYVVEVKYTFEVPEPNNPIIKKVEVKVKKLKPNEPASSAGGSAGGSAGG [r11_517_TrMRF]	1.12 ± 0.075	2.63 ± 0.063	2.22 ± 0.23
SAGGMIIIEGMSEEEIKNLIKEAIKKGEKVKKIVIRVNGKLYLITVDAKTKKITVEEIPLEELKKKKSAGGS [r16_481_TrROS_Hall]	0.692 ± 0.095	1.85 ± 0.067	1.4 ± 0.21
SADYVLYLVTLKVRRKVGDKEYELEVPLLILAPEDELDESEIEAIAREAAAELGAEVEEVKIERLPLNASAG [r14_278_TrMRF]	3.94 ± 0.11	4.88 ± 0.086	4.66 ± 0.059
SAGGSAGGSASVTVSPTPDDTWRVEVTETRYFFDPDGRPIGPVTITSSRVVSSEEEAAALLSAGGSAGGSAG [r3_232_JUSTAS]	0.537 ± 0.038	0.397 ± 0.15	0.49 ± 0.15
SAGGSKKVILIAKIPNEDKYLVLIASDSPELVKEAAKKAKKPGFYVLGEMTVEEAVKKLGLPPELFKSAGGS [r16_438_TrMRF]	1.04 ± 0.03	2.5 ± 0.051	2.23 ± 0.19
SAGGSAGGSAGGSMSVSSVGSSSGAGMIVKTTYFPGSGGTTVVLIEPASGVVLATTPVPGSAGGSAGGSAGG [r7_154_JUSTAS]	0.493 ± 0.04	0.272 ± 0.079	0.374 ± 0.13
SAGGSAGGSAMVILTPDGYLKVIKSITVEEALDPETDEPVLDVKAEVEVIPLPSLDDPAFKESAGGSAGGSA [r18_6_TrMRF]	0.251 ± 0.076	0.447 ± 0.087	0.396 ± 0.24
SAGGMKIKLKDGSEITIGSEPGRLVIVLRPPGPRSRKVIPFPVPSKEHGFVAAVNELLSLEDIEEIEPSAGG [r13_579_TrMRF]	0.379 ± 0.11	1.34 ± 0.077	1.15 ± 0.2
SAGGSAGGSAGVIPLPGGEEVEYFPEKGEATVRLPDGTVYKVEITKAPDGSLSVTVTPAGSAGGSAGGSAGG [r11_331_JUSTAS]	1.79 ± 0.052	1.1 ± 0.035	1.45 ± 0.052
SAGGGMTFNFTAPDGTPYEDVTTTPLPDGSTLVTVTQEDPKNPGVVTVTLIRLPSGADALEVTSGPVVSAGG [r13_370_JUSTAS]	0.972 ± 0.07	0.803 ± 0.087	0.944 ± 0.095
SAGGSAEETIEIEIPLEDLKPRKDGKLTEEEIKERLRKLIEELTGKKPKEITVERDENGTLRITIRSAGGSA [r15_562_TrROS_Hall]	1.46 ± 0.13	2.54 ± 0.18	2.2 ± 0.23
